Measurements published in patent US7105290 (PROCTER AND GAMBLE, dated 2006).

T1: mouse BMP receptor kinase protein m-BRK-3 (mouse), O35607
T1 chain: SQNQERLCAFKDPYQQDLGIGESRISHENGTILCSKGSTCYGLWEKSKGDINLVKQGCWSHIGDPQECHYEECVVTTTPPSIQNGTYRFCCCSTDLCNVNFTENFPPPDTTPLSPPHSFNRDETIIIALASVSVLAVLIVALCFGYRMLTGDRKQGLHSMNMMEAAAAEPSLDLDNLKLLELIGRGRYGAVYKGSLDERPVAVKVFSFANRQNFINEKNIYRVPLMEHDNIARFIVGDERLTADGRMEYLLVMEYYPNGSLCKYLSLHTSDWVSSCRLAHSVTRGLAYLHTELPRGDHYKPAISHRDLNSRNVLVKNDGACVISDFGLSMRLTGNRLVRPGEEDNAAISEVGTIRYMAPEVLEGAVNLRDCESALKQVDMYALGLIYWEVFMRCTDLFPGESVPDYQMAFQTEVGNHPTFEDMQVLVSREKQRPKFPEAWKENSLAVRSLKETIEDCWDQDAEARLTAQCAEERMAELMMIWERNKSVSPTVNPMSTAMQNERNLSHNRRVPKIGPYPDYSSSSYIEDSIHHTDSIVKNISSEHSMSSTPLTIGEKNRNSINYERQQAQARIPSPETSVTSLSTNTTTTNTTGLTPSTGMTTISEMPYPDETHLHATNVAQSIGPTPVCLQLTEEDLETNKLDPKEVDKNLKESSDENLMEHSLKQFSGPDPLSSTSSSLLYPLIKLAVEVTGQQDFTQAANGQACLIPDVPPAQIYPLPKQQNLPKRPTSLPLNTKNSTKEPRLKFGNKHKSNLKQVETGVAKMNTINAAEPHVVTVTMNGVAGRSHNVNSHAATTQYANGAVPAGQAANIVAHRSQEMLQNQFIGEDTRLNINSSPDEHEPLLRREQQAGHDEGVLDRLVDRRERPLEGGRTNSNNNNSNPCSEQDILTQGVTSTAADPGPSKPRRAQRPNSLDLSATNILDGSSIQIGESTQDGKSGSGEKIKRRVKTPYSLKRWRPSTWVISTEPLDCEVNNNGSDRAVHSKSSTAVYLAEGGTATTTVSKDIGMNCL

B1: bone morphogenetic protein 4, P12644 293-408 (ligand, UniProt P12644 293-408, looked up)
chain: SPKHHSQRARKKNKNCRRHSLYVDFSDVGWNDWIVAPPGYQAFYCHGDCPFPLADHLNSTNHAIVQTLVNSVNSSIPKACCVPTELSAISMLYLDEYDKVVLKNYQEMVVEGCGCR
modifications: here or on the partner: 125I-labelled when used as tracer ([^125I]-BMP-4; IODOBEADS or chloramine-T method); unlabeled when used as competitor
B2: bone morphogenetic protein 2 (ligand, UniProt P12643 283-396, looked up)
chain: QAKHKQRKRLKSSCKRHPLYVDFSDVGWNDWIVAPPGYHAFYCHGECPFPLADHLNSTNHAIVQTLVNSVNSKIPKACCVPTELSAISMLYLDENEKVVLKNYQDMVVEGCGCR
notes: also called BMP-2

Experiments:
[1] = molecular target: T1, mouse BMP receptor kinase protein …; experiment: whole cell binding of radiolabeled ligand, COS-1 cells transfected with pJT6-mBRK-3S or pJT6-mBRK-3L; details: remark: other sources report otherwise; scale: times the level seen with mock transfected cells
[2] = molecular target: T2, BRK-2 co-expressed with t-BRK-3 (BRK-2/t-BRK-3 complex) (chicken; human, UniProt Q05438 14-502; Q13873 27-540); experiment: competition, 10 nM unlabeled ligand against [^125I]-BMP-4; crosslinking and immunoprecipitation with antiserum 1380
T2 construct: Both receptors co-transfected into COS cells; also called BRK-2 and BRK-3 receptor complex; BRK-2 plus t-BRK-3
T2 sequence (Q05438 14-502 limits assumed, one chain of several): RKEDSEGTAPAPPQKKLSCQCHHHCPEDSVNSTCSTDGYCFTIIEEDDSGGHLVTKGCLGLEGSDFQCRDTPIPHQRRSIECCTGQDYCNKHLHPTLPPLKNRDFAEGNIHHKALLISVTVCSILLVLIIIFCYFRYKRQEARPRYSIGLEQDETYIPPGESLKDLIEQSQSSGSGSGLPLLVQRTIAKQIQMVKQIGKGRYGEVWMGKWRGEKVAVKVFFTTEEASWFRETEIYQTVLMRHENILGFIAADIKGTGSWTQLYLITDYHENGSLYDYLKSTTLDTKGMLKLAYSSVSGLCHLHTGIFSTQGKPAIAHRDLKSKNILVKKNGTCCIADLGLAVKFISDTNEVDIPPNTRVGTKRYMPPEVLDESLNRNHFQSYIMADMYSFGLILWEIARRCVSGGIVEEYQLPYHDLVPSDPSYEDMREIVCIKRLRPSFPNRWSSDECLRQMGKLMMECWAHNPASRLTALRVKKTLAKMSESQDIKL
Protocol: Following the crosslinking, cells are washed three times with ice-cold PBS, then lysed with 1 ml of RIP buffer (20 mM TrisCl, pH 8.0, 100 mM NaCl, 1 mM Na_2EDTA, 0.5% Nonidet P-40, 0.5% sodium deoxycholate, 10 mM sodium iodide, and 1% bovine serum albumin) for 10 min. The lysate is centrifuged in a microcentrifuge at 13,000 rpm for 10 min at 4° C. The supernatant is transferred to a fresh tube and made 0.1% in SDS. To remove any existing antibody present in the lysate, 50 µl of PANSORBIN (Calbiochem, La Jolla, Calif.; a 10% solution of *Staphylococcus aureus*) is added. After a 30 minute incubation at 4° C., the lysate is centrifuged as before, and the supernatant again transferred to a fresh tube.
To precipitate the complex of antigen:primary antibody, 25–50 µl of PANSORBIN is then added and incubated 30 min on ice. The complex is pelleted at 13,000 rpm for 10 min in a microcentrifuge and the supernatant discarded. The pellet is washed twice in RIP buffer containing 0.1% SDS, and once in TNEN buffer (20 mM Tris, pH 8.0, 100 mM NaCl, 1 mM EDTA, 0.5% NP-40). The pellet is resuspended in 25 µl of 1× sample loading buffer. (Alternatively, the pellet may be washed twice with TNEN buffer, with similar results.) The sample is boiled for 5 min, centrifuged for 5 min, and subjected to gel electrophoresis after loading of the samples onto a 7.5% SDS-polyacrylamide gel.

specific binding of [^125I]-BMP-4 relative to mock transfected cells [1]	binding result [2]	Binder
4 to 7	–	B1
–	binds	B2
